Assay results taken from PMC8748714 (2022).

B1: unnamed (parent)
chain 1: HSQGTFTSDYSKYLDSRRAQDFVQWLMNTKRNRNNIA
chain 2: RPQGATVSLWETVQKWREYRRQCQRSLTEDPPPATDLFCNRTFDEYACWPDGEPGSFVNVSCPWYLPWASSVPQGHVYRFCTAEGLWLQKDNSSLPWRDLSECEESKRGERSSPEEQLLFLYIIYTVGYALSFSALVIASAILLGFRHLHCTRNYIHLNLFASFILRALSVFIKDAALKWMYSTAAQQHQWDGLLSYQDSLSCRLVFLLMQYCVAANYYWLLVEGVYLYTLLAFSVLSEQWIFRLYVSIGWGVPLLFVVPWGIVKYLYEDEGCWTRNSNMNYWLIIRLPILFAIGVNFLIFVRVICIVVSKLKANLMCKTDIKCRLAKSTLTLIPLLGTHEVIFAFVMDEHARGTLRFIKLFTELSFTSFQGLMVAILYCFVNNEVQLEFRKSWERWRLEHLHIQRDSSMKPLKCPTSSLSSGATAGSSMYTATCQASCS

Variants of: B1
Assay: radioligand competition binding on whole cells
Settings: with partner chain of the complex shown;; read off a plot

Row | Variant | log10 ratio
1 | chain 2 N217A | 0.3 pIC50 ΔWT
2 | chain 2 W274A | -0.4 pIC50 ΔWT
3 | chain 2 R167A | 0.1 pIC50 ΔWT
4 | chain 2 E341A | 0.3 pIC50 ΔWT
5 | chain 2 K174A | -1.9 pIC50 ΔWT

Variants of: B1
Assay: radioligand competition binding on whole cells
Settings: with partner chain of the complex shown;; read off a plot
Remark: another data set of the same source

Row | Variant | log10 ratio
6 | chain 2 E364A | -0.85 pIC50 ΔWT
7 | chain 2 W274A | -0.3 pIC50 ΔWT
